Assay results published in US20160199438A1 (Eli Lilly, published 2016).

T1: human GLP-2 receptor (human, UniProt O95838 1-553)
T1 sequence (looked up): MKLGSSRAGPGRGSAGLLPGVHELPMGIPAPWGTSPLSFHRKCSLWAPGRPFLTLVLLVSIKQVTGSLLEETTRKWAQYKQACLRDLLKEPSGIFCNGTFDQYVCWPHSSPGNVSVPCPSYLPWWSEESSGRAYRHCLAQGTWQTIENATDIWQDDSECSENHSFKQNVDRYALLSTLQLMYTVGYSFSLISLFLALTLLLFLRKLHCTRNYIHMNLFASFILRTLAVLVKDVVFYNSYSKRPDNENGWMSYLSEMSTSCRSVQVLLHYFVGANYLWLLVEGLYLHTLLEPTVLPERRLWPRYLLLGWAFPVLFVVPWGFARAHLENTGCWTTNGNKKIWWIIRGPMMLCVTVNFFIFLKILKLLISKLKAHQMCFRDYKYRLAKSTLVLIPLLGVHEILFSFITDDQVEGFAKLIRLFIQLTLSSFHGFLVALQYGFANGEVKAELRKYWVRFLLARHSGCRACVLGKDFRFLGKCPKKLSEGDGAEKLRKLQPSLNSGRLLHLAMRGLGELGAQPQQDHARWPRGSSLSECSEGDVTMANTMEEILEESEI

T2: human glucose-dependent insulinotropic polypeptide receptor (human, UniProt P48546 22-466)
T2 construct: whole, on cells; also called hGIP-R; Human GIP-R
T2 sequence (looked up): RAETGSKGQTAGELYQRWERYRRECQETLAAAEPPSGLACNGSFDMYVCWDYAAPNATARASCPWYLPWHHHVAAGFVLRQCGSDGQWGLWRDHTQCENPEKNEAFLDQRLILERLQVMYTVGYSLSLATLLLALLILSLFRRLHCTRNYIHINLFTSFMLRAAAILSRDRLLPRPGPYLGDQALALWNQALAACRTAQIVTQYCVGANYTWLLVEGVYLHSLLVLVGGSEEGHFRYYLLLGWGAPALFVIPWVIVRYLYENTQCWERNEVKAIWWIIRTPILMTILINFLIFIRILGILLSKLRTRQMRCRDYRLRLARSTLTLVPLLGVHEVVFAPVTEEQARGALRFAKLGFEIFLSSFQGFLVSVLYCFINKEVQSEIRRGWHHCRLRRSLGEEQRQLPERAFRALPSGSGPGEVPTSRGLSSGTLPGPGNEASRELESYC

T3: GIP receptor of GLUTag cells (murine (the cell line is stated to be …, UniProt Q0P543 19-460))
T3 sequence (looked up): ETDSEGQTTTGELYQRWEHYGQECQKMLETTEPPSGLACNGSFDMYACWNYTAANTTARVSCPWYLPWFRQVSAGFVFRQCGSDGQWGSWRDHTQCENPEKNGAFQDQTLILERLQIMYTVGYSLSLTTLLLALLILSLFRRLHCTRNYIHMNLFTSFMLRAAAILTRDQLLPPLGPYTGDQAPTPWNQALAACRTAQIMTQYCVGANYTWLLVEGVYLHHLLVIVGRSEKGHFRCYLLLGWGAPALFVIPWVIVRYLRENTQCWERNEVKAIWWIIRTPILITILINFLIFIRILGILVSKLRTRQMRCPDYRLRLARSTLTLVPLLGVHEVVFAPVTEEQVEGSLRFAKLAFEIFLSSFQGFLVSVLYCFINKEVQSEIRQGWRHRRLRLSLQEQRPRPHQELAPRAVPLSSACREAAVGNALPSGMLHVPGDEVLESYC


Assays:
[1] = target: human glucose-dependent insulinotropic polypeptide receptor (human) (UniProt P48546); assay: cell-based or functional assay
human GLP-2 receptor = target: T1, human GLP-2 receptor; assay: cell-based or functional assay
[2] = target: T4, human glucagon-like peptide 1 receptor (human, UniProt P43220 24-463); assay: competition of I-125 GLP-1, SPA, hGLP-1R 293HEK membranes; Ki by Cheng-Prusoff
T4 construct: whole, on cells; also called hGLP-1R; Human GLP-1R
Method: The hGLP-1R cDNA is subcloned into the expression plasmid phD (Trans-activated expression of fully gamma-carboxylated recombinant human protein C, an antithrombotic factor. Grinnell, B. W., Berg, D. T., Walls, J. and Yan, S. B. Bio/Technology 5: 1189-1192, 1987). This plasmid DNA is transfected into 293HEK cells and selected with 200 μg/mL Hygromycin.
The binding buffer contains 25 mM HEPES, pH 7.4, 2.5 mM CaCl₂, 1 mM MgCl₂, 0.1% fatty acid free BSA, 0.003% Tween20, and Roche Complete™ Inhibitors without EDTA. […] The peptide analog is dissolved in 100% DMSO and serially diluted in 100% DMSO. Next, 10 μL diluted compounds of the present invention or 100% DMSO are transferred into Corning® 3632 clear bottom assay plates containing 40 μL assay binding buffer or cold glucagon (NSB at 1 μM final). […] Plates are read with a PerkinElmer Life and Analytical Sciences Trilux MicroBeta® scintillation counter after 12 hours of settling time at room temperature.
(§1) The IC₅₀ concentration is converted to Ki using the Cheng-Prusoff equation.

[3] = target: T2, human glucose-dependent insulinotropic …; assay: competition of [125I]GIP, SPA, hGIP-R CHO-S membranes; Ki by Cheng-Prusoff
Method: The compounds are serially diluted into binding buffer. Next, 10 μL diluted compound or 100% DMSO is transferred into Corning® 3632 clear bottom assay plates containing 40 μL assay binding buffer or cold GIP (NSB at 0.1 μM final). Then, 90 μL membranes (3 μg/well), 50 μL [|¹²⁵|] GIP (Perkin Elmer Life and Analytical Sciences at 0.15 nM final in reaction), and 50 μL of WGA beads (150 μg/well) is added, sealed, and mixed on a plate shaker for 1 minute. Plates are read with a MicroBeta® scintillation counter after 12 hours of settling time at room temperature.
as §1

[4] = target: T2, human glucose-dependent insulinotropic …; assay: cell-based or functional assay
[5] = target: T4, human glucagon-like peptide 1 receptor; assay: cell-based or functional assay
[6] = target: T3, GIP receptor of GLUTag cells; assay: cell-based or functional assay
[7] = target: T4, human glucagon-like peptide 1 receptor; assay: Ki ratio hGLP-1R/hGIP-R normalized by 4.53 (native GLP-1/GIP), radioligand competition
human glucagon receptor = human glucagon receptor (human, UniProt P47871 26-477); assay: cell-based or functional assay
[8] = target: T4, human glucagon-like peptide 1 receptor; assay: ratio of Ki on hGLP-1R to Ki on hGIP-R (reference), radioligand competition

Chain of human glucagon receptor (P47871 26-477): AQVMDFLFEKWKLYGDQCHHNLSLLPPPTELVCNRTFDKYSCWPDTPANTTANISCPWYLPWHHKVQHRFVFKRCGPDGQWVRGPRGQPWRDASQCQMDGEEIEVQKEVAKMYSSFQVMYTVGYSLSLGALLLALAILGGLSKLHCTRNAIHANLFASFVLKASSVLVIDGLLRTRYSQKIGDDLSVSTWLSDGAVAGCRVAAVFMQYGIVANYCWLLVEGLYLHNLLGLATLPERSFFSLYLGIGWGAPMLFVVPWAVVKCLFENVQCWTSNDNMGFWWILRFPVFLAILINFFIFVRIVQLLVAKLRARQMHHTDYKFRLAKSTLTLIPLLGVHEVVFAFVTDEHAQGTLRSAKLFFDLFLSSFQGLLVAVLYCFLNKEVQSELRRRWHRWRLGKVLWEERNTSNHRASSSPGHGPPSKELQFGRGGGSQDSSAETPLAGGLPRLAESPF

Molecule	Emax, % (intracellular cAMP) [1] [%]	Rel EC50 (intracellular cAMP) (human GLP-2 receptor) [nM]	Ki [2] [nM]	Ki [3] [nM]	EC50 (intracellular cAMP) [4] [nM]	Emax, % (intracellular cAMP) [4] [%]	EC50 (intracellular cAMP) [5] [nM]	Emax, % (intracellular cAMP) [5] [%]	Average EC50, cAMP in GLUTag cells [6] [nM]	Molar ratio of hGLP-1R/hGIP-R [7]	EC50 (intracellular cAMP) (human glucagon receptor) [nM]	Absolute ratio of hGLP-1R/hGIP-R [8]
human GIP(1-42)NH2 (from UniProt P09681 52-93) (ligand)	100	–	–	–	–	–	–	–	–	–	–	–
C18-acylated human GLP-2 control (from UniProt P01275 146-178) (peptide)	–	1.86	–	–	–	–	–	–	–	–	–	–
YXEGTFTSDYSIXLDKIAQKAFVQWLIAGGPSSGAPPPS (Aib at positions 2 and 13; K at position 20 conjugated at the epsilon-amino group with ([2-(2-Amino-ethoxy)-ethoxy]-acetyl)2-(γGlu)1-CO-(CH2)16-CO2H; C-terminal primary amide, Synthetic acylated peptide, trifluoroacetate salt) [Example 3]	–	199	427	26.7	3.15	106	33.9	96.2	1610	–	–	–
YXEGTFTSDYSIXLDKIAQKAXVQWLIAGGPSSGAPPPS (Aib at positions 2 and 13; K at position 20 conjugated at the epsilon-amino group with ([2-(2-Amino-ethoxy)-ethoxy]-acetyl)2-(γGlu)1-CO-(CH2)16-CO2H; 1-Nal at position 22; C-terminal primary amide, Synthetic acylated peptide, trifluoroacetate salt) [Example 6]	–	–	365	44.2	4.4	106	28.4	104	–	1.83	> 1000	8.3
YXEGTFTSDYSIXLDKIAQKAFVQWLIAGGPSSGAPPPS (Aib at positions 2 and 13; K at position 20 conjugated at the epsilon-amino group with ([2-(2-Amino-ethoxy)-ethoxy]-acetyl)2-(γGlu)2-CO-(CH2)18-CO2H; C-terminal primary amide, Synthetic acylated peptide, trifluoroacetate salt) [Example 5]	–	–	158	17.8	8.76	105	–	105	–	–	–	–
YXEGTFTSDYSIXLDKIAQKAFVQWLIAGGPSSGAPPPS (Aib at positions 2 and 13; K at position 20 conjugated at the epsilon-amino group with ([2-(2-Amino-ethoxy)-ethoxy]-acetyl)2-(γGlu)1-CO-(CH2)18-CO2H; C-terminal primary amide) [Example 1]	–	–	–	–	–	97.9	–	85.2	1490	–	–	–
YXEGTFTSDYSIXLDKIAQKAFVQWLIAGGPSSGAPPPS (Aib at positions 2 and 13; K at position 20 conjugated at the epsilon-amino group with ([2-(2-Amino-ethoxy)-ethoxy]-acetyl)2-(γGlu)2-CO-(CH2)16-CO2H; C-terminal primary amide, Synthetic acylated peptide, trifluoroacetate salt) [Example 4]	–	405	714	40.7	3.76	–	–	100	2190	–	–	–
YXEGTFTSDYSIXLDKIAQKAXVQWLIAGGPSSGAPPPS (Aib at positions 2 and 13; K at position 20 conjugated at the epsilon-amino group with ([2-(2-Amino-ethoxy)-ethoxy]-acetyl)2-(γGlu)2-CO-(CH2)16-CO2H; 1-Nal at position 22; C-terminal primary amide, Synthetic acylated peptide, trifluoroacetate salt) [Example 7]	–	1800	352	46.1	8.07	106	35.5	97.2	2750	1.68	> 1000	7.6
YXEGTFTSDYSIXLDKIAQKAXVQWLIAGGPSSGAPPPS (Aib at positions 2 and 13; K at position 20 conjugated at the epsilon-amino group with ([2-(2-Amino-ethoxy)-ethoxy]-acetyl)2-(γGlu)2-CO-(CH2)18-CO2H; 1-Nal at position 22; C-terminal primary amide, Synthetic acylated peptide, trifluoroacetate salt) [Example 2]	–	1610	344	63.9	17.5	94.7	75.7	98.2	2920	1.19	> 1000	5.4
YXEGTFTSDYSIXLDKIAQKAXVQWLIAGGPSSGAPPPS (Aib at positions 2 and 13; K at position 20 conjugated at the epsilon-amino group with ([2-(2-Amino-ethoxy)-ethoxy]-acetyl)2-(γGlu)1-CO-(CH2)18-CO2H; 1-Nal at position 22; C-terminal primary amide, Synthetic acylated peptide, trifluoroacetate salt) [Example 8]	–	–	307	67.5	21.1	108	57.9	88.4	–	0.99	> 1000	4.5
